Results published in patent US6818612B2, “Use of parvovirus capsid particles in the inhibition of cell proliferation and migration” (priority 1998, dated 2004).

B1: VP2 capsids: B19 parvovirus capsids having only VP2 (protein)
chain: MTSVNSAEASTGAGGGGSNSVKSMWSEGATFSANSVTCTFSRQFLIPYDPEHHYKVFSPAASSCHNASGKEAKVCTISPIMGYSTPWRYLDFNALNLFFSPLEFQHLIENYGSIAPDALTVTISEIAVKDVTDKTGGGVQVTDSTTGRLCMLVDHEYKYPYVLGQGQDTLAPELPIWVYFPPQYAYLTVGDVNTQGISGDSKKLASEESAFYVLEHSSFQLLGTGGTASMSYKFPPVPPENLEGCSQHFYEMYNPLYGSRLGVPDTLGGDPKFRSLTHEDHAIQPQNFMPGPLVNSVSTKEGDSSNTGAGKALTGLSTGTSQNTRISLRPGPVSQPYHHWDTDKYVTGINAISHGQTTYGNAEDKEYQQGVGRFPNEKEQLKQLQGLNMHTYFPNKGTQQYTDQIERPLMVGSVWNRRALHYESQLWSKIPNLDDSFKTQFAALGGWGLHQPPPQIFLKILPQSGPIGGIKSMGITTLVQYAVGIMTVTMTFKLGPRKATGRWNPQPGVYPPHAAGHLPYVLYDPTATDAKQHHRHGYEKPEELWTAKSRVHPL

Assays:
human fetal liver cells [1] = experiment: Colony formation assay (Stem cell CFU kit, 11 day) of fetal liver cells; assay type: cell-based; settings: FIG. 9
human fetal liver cells [2] = experiment: as above; assay type: cell-based; settings: fetal liver cells
Text: In a first set of experiments, it was discovered that B19 parvovirus capsids inhibit hematopoiesis and that these molecules could be used to reduce the overproduction of red blood cells, white blood cells, and blood platelets, as is experienced by patients suffering from hematological proliferative diseases, such as Polycytemia Vera. (See FIG. 1A). In a first set of experiments, fresh human fetal liver cells, umbilical cord blood cells, and bone marrow cells were contacted with recombinant B19 parvovirus capsids in a colony formation assay. The general features of a colony formation assay are depicted in FIG. 1B. The ability of the B19 parvovirus capsids to inhibit hematopoiesis was verified by the reduction of colony formation in the presence of the capsids, as compared to untreated control populations of cells. A more detailed description of these experiments is provided below.
To obtain fetal liver tissue, human fetuses 6-12 weeks of gestational age were obtained from legal abortions; the patients had volunteered to donate fetal tissue. Gestational age was estimated according to specific anatomical markers and is given as menstruational age. Abortions were performed with vacuum aspirations. Fetal liver was dissected under sterile conditions, placed in a sterile tube containing RPMI1640 and disintegrated by passage through a vinyl mesh to form a single cell suspension. Nucleated cells were then washed three times, counted and diluted in culture medium.
A commercial kit—the “Stem cell CFU kit” (GIBCO BRL, Life Technology Inc., NY, USA)—was used to perform the colony formation assays. The kit provides a semi-solid support that mimics the extracellular matrix produced by stromal cells. Other components included in the kit are: Iscove's modified Dulbecco's medium, modified fetal bovine serum, methylcellulose, 2-mercaptoethanol, conditioned medium and erythropoietin. The colonies that were formed in the assay were identified as BFU-E (burst forming unit-erythroid cells) with densely packed hemoglobonized cells, CFU-GM (colony forming units-granulocytes, macrophages) with arrangements of non-hemoglobinized cells, and CFU-GEMM (colony forming units-granulocytes, erythroid cells, macrophages, megakaryocytes) with hemoglobinized cells and small and large peripheral cells.
Recombinant B19 parvovirus empty capsid particles (Kajigaya et al., Proc Natl Acad Sci USA, 88:4646 (1991)) were prepared in a recombinant baculovirus-insect cell (Spodofera frugiperda) expression system. (Kajigaya et al., Proc Natl Acad Sci USA, 88:4646 (1991)). The isolated or purified capsids were diluted in buffer (20 mM Tris, 0.5M NaCl, pH 8.5) and 30 μL of each dilution was added to approximately 25×10^3 cells (50×10^3 for postnatal cells) in 100 μL of culture medium and incubated for 1 hour at 4° C. The mixtures were then transferred to incubation dishes and culture medium was added to a final volume of 0.5 ml per well. The cells were then incubated for 11 days in a humidified atmosphere at 5% CO2, and were scored for BFU-E, CFU-GM and CFU-GEMM derived colony formation.

[3] = tested on: human umbilical vein endothelial cells (HUVEC); experiment: Endothelial cell proliferation assay (crystal violet, A540); assay type: cell-based
Experimental: To determine whether B19 parvovirus capsids can inhibit endothelial cell proliferation, assays were performed in which primary human umbilical vein endothelial cells, plated at a density of 1.5×10^4 cells per well in a 24 well plate, were incubated with B19 parvovirus capsids in the presence of 0.5% fetal calf serum+10.0 ng/ml basic fibroblast growth factor. The various B19 parvovirus capsid preparations (i.e., VP1/2 or capsids made with only VP1 or VP2) were added to each well on the following day and the cells with capsids were incubated for additional 72 hours. Cell proliferation was then determined by using a crystal violet dye assay. Accordingly, capsid treated cells were washed in PBS, fixed in 3.7% formaldehyde, and incubated with crystal violet. The dye was then removed by extensive washes with distilled water. The cell-associated crystal violet was solubilized with 10% acetic acid and quantified at absorbance 540 nm in an ELISA plate reader.
Thus, from left to right, the bars represent the absorbance at 540 nm with 0 μg/ml, 0.01 μg/ml, 0.1 μg/ml, 1.0 μg/ml, and 10.0 μg/ml. […] The standard deviation was within 10%.

HUVEC cells = experiment: Endothelial cell migration assay (modified Boyden chamber); assay type: cell-based, human
Experimental: The effect of B19 parvovirus capsid preparations on cell migration was also determined. The migration assays were performed using a modified Boyden chamber assay (Neuroprobe, Inc.). Basic fibroblast growth factor (40 ng/ml) was added to stimulate migration of the HUVEC cells through a collagen 1 coated 8 μm pore size millipore filter. Cells were incubated for 60 min with the various B19 parvovirus capsid preparations (i.e., VP1/2 or capsids made with only VP1 or VP2) prior to conducting the migration assay. To perform the migration assay, the Boyden chamber was incubated for 4.5 h at 37° C. in a 10% CO2 atmosphere. The filters were subsequently removed and were fixed in 3.7% formaldehyde. Cell migration was visualized by staining the filters overnight in Gill's Hematoxylin. The number of migrating cells were scored by counting stained cells on the migrating side of the filter per high power magnification field. (See FIG. 15).

Molecule	inhibition of hematopoiesis and cell growth (colony formation) by deletion series peptides (human fetal liver cells [1])	inhibition of colony formation (human fetal liver cells [2]; 1 μg/ml VP2 capsid, FIG. 4)	colony formation, % of the control (human fetal liver cells [2]; 30 μg/mL, FIG. 5)	inhibition of hematopoietic cell growth (human fetal liver cells [2]; 30 μg/ml, FIG. 3)	lowest concentration at which inhibition of colony formation of hematopoietic cells was seen (human fetal liver cells [2]; 11 day colony formation assay, 'as little as' / 'as low as') [µg/mL]	inhibition of colony formation of hematopoietic stem cells compared with VP1/2 capsids (human fetal liver cells [2]; FIG. 4)	inhibition of endothelial cell proliferation ([3]; 10.0 μg/ml, FIG. 14)	lowest concentration that efficiently inhibits endothelial cell proliferation ([3]; 72 hours, 10.0 ng/ml basic fibroblast growth factor, FIG. 14, 'as low as') [µg/mL]	inhibition of endothelial cell migration compared with other capsid preparations (HUVEC cells; FIG. 15)	lowest concentration that effectively inhibited endothelial cell migration (HUVEC cells; basic fibroblast growth factor 40 ng/ml, FIG. 15, 'as low as') [µg/mL]
NKGTQQYTDQ (OTHER INFORMATION: Peptide fragments derived from parvovirus capsid particles) [Peptide IV]	significantly inhibit hematopoiesis and cell growth	–	–	–	–	–	–	–	–	–
QQY [Peptide VIII]	significantly inhibit hematopoiesis and cell growth	–	–	–	–	–	–	–	–	–
B1	–	Approximately 50%	less than 30 % of the control	significant inhibition	3	as effectively as VP1/2 capsids	significant inhibition	1.0	significantly more potent than that observed with either native capsids (VP1/2) or capsids having only VP1	1
